From PMC8193015 come the findings set out here.

Where two headings read alike, the source gives them in different places. Ends that are not written are not given here.

Assay [1] has as its target soluble DR4 (sDR4) recombinant protein (human). The assay can be described thus: ELISA.
In assay [2] the target is “empty” DQ6 (DQA1*01:02/DQB1*06:02) with leucine zippers displayed on yeast as a noncovalent αβ heterodimer (human). The assay can be described thus: flow cytometry on cells.
For assay [3], the target named is soluble DQ6 (sDQ6) recombinant protein, CLIP87–101 linker cleaved by thrombin (human). The assay can be described thus: ELISA.
Assay [4] addresses “empty” DQ6 (DQA1*01:02/DQB1*06:02) with leucine zippers displayed on yeast as a noncovalent αβ heterodimer (human). The assay can be described thus: flow cytometry on cells. The source holds these as a separate data set.
Assay [5] concerns the target soluble DQ6 (sDQ6) recombinant protein, CLIP87–101 linker cleaved by thrombin (human). The assay can be described thus: ELISA. This is another data set of the same source.

As for HA306–318 peptide, nonbiotinylated, in assay [1], the %Competition at [competitor]:[indicator] = 10 is 75%. As to “HCRT1–15 peptide (from UniProt O43612 1-15)”, the %Competition in assay [2] was > 50%. With “HCRT21–35 peptide (from UniProt O43612 21-35)”, the %Competition in assay [2] is > 50%. Still for that read-out and setting: then “HCRT25–39 peptide (from UniProt O43612 25-39)”, with > 50%. The same measure, in the same setting: then “HCRT53–67 peptide (from UniProt O43612 53-67)”, with > 50%; and “HCRT57–71 peptide (from UniProt O43612 57-71)”, with > 50%; and “HCRT81–95 peptide (from UniProt O43612 81-95)”, with > 50%.

In the case of “HCRT85–99 peptide (from UniProt O43612 85-99)”, in assay [2], the %Competition is > 50%. On to “HCRT89–103 peptide (from UniProt O43612 89-103)”, for which, in assay [2], the %Competition was > 75% and the %Competition at [competitor]:[indicator] = 10 is > 75%. Further, the %Competition at [competitor]:[indicator] = 100 in assay [3] was > 75%. Consider “SARS-CoV-2 spike peptide S652–668 (from UniProt P0DTC2 652-668)”, for which the %Competition at [competitor]:[indicator] = 100 in assay [1] is < 50%.

“SARS-CoV-2 spike peptide S1058–1074 (from UniProt P0DTC2 1058-1074)”: the fold weaker BA than HA306–318 (IC50 normalised to HA306–318) in assay [1] was determined as 20 fold. For MNLPSTKVSWAAV (not fully specified) [HCRT1–13 peptide, nonbiotinylated], in assay [4], the %Competition at [competitor]:[indicator] = 10 amounted to 75% and the IC50 was 30 µM. In assay [5], the %Competition at [competitor]:[indicator] = 10 came to 75%.
